# Reference: patent publication US11965039B2, “Compstatin analogues and their medical uses” (priority 2018, dated 2024)
# Starred links: 1 amine or outer side, 2 acyl side, 3 side chain; linkers in the order of their positions; H or OH if unused. Positions of bridges follow the written chain, without caps; N, C: chain ends. Non-standard residues stand in square brackets, D forms with d. Groups on a side chain read outwards from the residue. *: point of attachment. X1 = K(γGlu-G-γGlu-17-carboxy-heptadecanoyl), O=C(O)CCCCCCCCCCCCCCCCC(=O)N[C@@H](CCC(=O)NCC(=O)N[C@@H](CCC(=O)NCCCC[C@H](N[*:1])C(=O)[*:2])C(=O)O)C(=O)O; Trp(1-Me) = Cn1cc(C[C@H](N)C(=O)O)c2ccccc21; C18 diacid = O=C(O)CCCCCCCCCCCCCCCCC(=O)*; γGlu = O=C(O)[C@H](CCC(=O)[*:2])N[*:1]; AEEA = NCCOCCOCC(=O)O; Sar = CNCC(=O)O
# B1: Compound 136 (peptide)
# peptide: Ac-SEFCI[Trp(1-Me)]QDWGEHRCTEGE-{8‑aminooctanoyl-X1-NH2}
# modifications: disulfide 4-14
# B2: Compound 143 (peptide)
# peptide: Ac-SEFCI[Trp(1-Me)]QDWGEHRC[Sar]EGE-{AEEA-AEEA-AEEA-X1-NH2}
# modifications: disulfide 4-14
# SMILES: CC[C@H](C)[C@@H]1NC(=O)[C@@H](NC(=O)[C@H](Cc2ccccc2)NC(=O)[C@H](CCC(=O)O)NC(=O)[C@H](CO)NC(C)=O)CSSC[C@@H](C(=O)N(C)CC(=O)N[C@@H](CCC(=O)O)C(=O)NCC(=O)N[C@@H](CCC(=O)O)C(=O)NCCOCCOCC(=O)NCCOCCOCC(=O)NCCOCCOCC(=O)N[C@@H](CCCCNC(=O)CC[C@H](NC(=O)CNC(=O)CC[C@H](NC(=O)CCCCCCCCCCCCCCCCC(=O)O)C(=O)O)C(=O)O)C(N)=O)NC(=O)[C@H](CCCNC(=N)N)NC(=O)[C@H](Cc2c[nH]cn2)NC(=O)[C@H](CCC(=O)O)NC(=O)CNC(=O)[C@H](Cc2c[nH]c3ccccc23)NC(=O)[C@H](CC(=O)O)NC(=O)[C@H](CCC(N)=O)NC(=O)[C@H](Cc2cn(C)c3ccccc23)NC1=O
# B3: Compound 138 (peptide)
# peptide: Ac-SEFCI[Trp(1-Me)]QDWGEHRC[Sar]EGE-{AEEA-X1-NH2}
# modifications: disulfide 4-14
# SMILES: CC[C@H](C)[C@@H]1NC(=O)[C@@H](NC(=O)[C@H](Cc2ccccc2)NC(=O)[C@H](CCC(=O)O)NC(=O)[C@H](CO)NC(C)=O)CSSC[C@@H](C(=O)N(C)CC(=O)N[C@@H](CCC(=O)O)C(=O)NCC(=O)N[C@@H](CCC(=O)O)C(=O)NCCOCCOCC(=O)N[C@@H](CCCCNC(=O)CC[C@H](NC(=O)CNC(=O)CC[C@H](NC(=O)CCCCCCCCCCCCCCCCC(=O)O)C(=O)O)C(=O)O)C(N)=O)NC(=O)[C@H](CCCNC(=N)N)NC(=O)[C@H](Cc2c[nH]cn2)NC(=O)[C@H](CCC(=O)O)NC(=O)CNC(=O)[C@H](Cc2c[nH]c3ccccc23)NC(=O)[C@H](CC(=O)O)NC(=O)[C@H](CCC(N)=O)NC(=O)[C@H](Cc2cn(C)c3ccccc23)NC1=O
# B4: Compound 134 (peptide)
# peptide: Ac-EFCI[Trp(1-Me)]QDWGEHRCEGEK([γGlu-Gly-γGlu-C18 diacid])-NH2
# modifications: disulfide 3-13
# SMILES: CC[C@H](C)[C@@H]1NC(=O)[C@@H](NC(=O)[C@H](Cc2ccccc2)NC(=O)[C@H](CCC(=O)O)NC(C)=O)CSSC[C@@H](C(=O)N[C@@H](CCC(=O)O)C(=O)NCC(=O)N[C@@H](CCC(=O)O)C(=O)N[C@@H](CCCCNC(=O)CC[C@H](NC(=O)CNC(=O)CC[C@H](NC(=O)CCCCCCCCCCCCCCCCC(=O)O)C(=O)O)C(=O)O)C(N)=O)NC(=O)[C@H](CCCNC(=N)N)NC(=O)[C@H](Cc2c[nH]cn2)NC(=O)[C@H](CCC(=O)O)NC(=O)CNC(=O)[C@H](Cc2c[nH]c3ccccc23)NC(=O)[C@H](CC(=O)O)NC(=O)[C@H](CCC(N)=O)NC(=O)[C@H](Cc2cn(C)c3ccccc23)NC1=O
# B5: Compound 137 (peptide)
# peptide: Ac-SEFCI[Trp(1-Me)]QDWGEHRCTEGE-{8‑aminooctanoyl-Glu-X1-NH2}
# modifications: disulfide 4-14
# B6: Compound 8 (peptide)
# peptide: Ac-ICIWQKWGAHRCTGAES-NH2
# modifications: disulfide 2-12
# SMILES: CC[C@H](C)[C@H](NC(C)=O)C(=O)N[C@H]1CSSC[C@@H](C(=O)N[C@H](C(=O)NCC(=O)N[C@@H](C)C(=O)N[C@@H](CCC(=O)O)C(=O)N[C@@H](CO)C(N)=O)[C@@H](C)O)NC(=O)[C@H](CCCNC(=N)N)NC(=O)[C@H](Cc2c[nH]cn2)NC(=O)[C@H](C)NC(=O)CNC(=O)[C@H](Cc2c[nH]c3ccccc23)NC(=O)[C@H](CCCCN)NC(=O)[C@H](CCC(N)=O)NC(=O)[C@H](Cc2c[nH]c3ccccc23)NC(=O)[C@H]([C@@H](C)CC)NC1=O
# B7: Compound 135 (peptide)
# peptide: Ac-SEFCI[Trp(1-Me)]QDWGEHRCTGAESK([γGlu-Gly-γGlu-15‑carboxy‑hexadecanoyl])-NH2
# modifications: disulfide 4-14
# B8: Compound 132 (peptide)
# peptide: Ac-SEFCI[Trp(1-Me)]QDWGEHRC[Sar]EK[γGlu]GGGK([γGlu-Gly-γGlu-C18 diacid])-NH2
# modifications: disulfide 4-14
# SMILES: CC[C@H](C)[C@@H]1NC(=O)[C@@H](NC(=O)[C@H](Cc2ccccc2)NC(=O)[C@H](CCC(=O)O)NC(=O)[C@H](CO)NC(C)=O)CSSC[C@@H](C(=O)N(C)CC(=O)N[C@@H](CCC(=O)O)C(=O)N[C@@H](CCCCN)C(=O)N[C@@H](CCC(=O)NCC(=O)NCC(=O)NCC(=O)N[C@@H](CCCCNC(=O)CC[C@H](NC(=O)CNC(=O)CC[C@H](NC(=O)CCCCCCCCCCCCCCCCC(=O)O)C(=O)O)C(=O)O)C(N)=O)C(=O)O)NC(=O)[C@H](CCCNC(=N)N)NC(=O)[C@H](Cc2c[nH]cn2)NC(=O)[C@H](CCC(=O)O)NC(=O)CNC(=O)[C@H](Cc2c[nH]c3ccccc23)NC(=O)[C@H](CC(=O)O)NC(=O)[C@H](CCC(N)=O)NC(=O)[C@H](Cc2cn(C)c3ccccc23)NC1=O
# B9: Compound 133 (peptide)
# peptide: Ac-SEFCI[Trp(1-Me)]QDWGEHRCTEK[γGlu]GGGK([γGlu-Gly-γGlu-C18 diacid])-NH2
# modifications: disulfide 4-14
# SMILES: CC[C@H](C)[C@@H]1NC(=O)[C@@H](NC(=O)[C@H](Cc2ccccc2)NC(=O)[C@H](CCC(=O)O)NC(=O)[C@H](CO)NC(C)=O)CSSC[C@@H](C(=O)N[C@H](C(=O)N[C@@H](CCC(=O)O)C(=O)N[C@@H](CCCCN)C(=O)N[C@@H](CCC(=O)NCC(=O)NCC(=O)NCC(=O)N[C@@H](CCCCNC(=O)CC[C@H](NC(=O)CNC(=O)CC[C@H](NC(=O)CCCCCCCCCCCCCCCCC(=O)O)C(=O)O)C(=O)O)C(N)=O)C(=O)O)[C@@H](C)O)NC(=O)[C@H](CCCNC(=N)N)NC(=O)[C@H](Cc2c[nH]cn2)NC(=O)[C@H](CCC(=O)O)NC(=O)CNC(=O)[C@H](Cc2c[nH]c3ccccc23)NC(=O)[C@H](CC(=O)O)NC(=O)[C@H](CCC(N)=O)NC(=O)[C@H](Cc2cn(C)c3ccccc23)NC1=O
# B10: Compound 9 (peptide)
# peptide: Ac-YCIWQDWGEHRCT-NH2
# modifications: disulfide 2-12
# SMILES: CC[C@H](C)[C@@H]1NC(=O)[C@@H](NC(=O)[C@H](Cc2ccc(O)cc2)NC(C)=O)CSSC[C@@H](C(=O)N[C@H](C(N)=O)[C@@H](C)O)NC(=O)[C@H](CCCNC(=N)N)NC(=O)[C@H](Cc2c[nH]cn2)NC(=O)[C@H](CCC(=O)O)NC(=O)CNC(=O)[C@H](Cc2c[nH]c3ccccc23)NC(=O)[C@H](CC(=O)O)NC(=O)[C@H](CCC(N)=O)NC(=O)[C@H](Cc2c[nH]c3ccccc23)NC1=O
# Molecular target: Human C3 (Complement tech cat #A113c) (human, UniProt P01024 23-1663)
# Assay: cell-based or functional assay
# Chain of Human C3 (Complement tech cat #A113c) (P01024 23-1663 limits assumed): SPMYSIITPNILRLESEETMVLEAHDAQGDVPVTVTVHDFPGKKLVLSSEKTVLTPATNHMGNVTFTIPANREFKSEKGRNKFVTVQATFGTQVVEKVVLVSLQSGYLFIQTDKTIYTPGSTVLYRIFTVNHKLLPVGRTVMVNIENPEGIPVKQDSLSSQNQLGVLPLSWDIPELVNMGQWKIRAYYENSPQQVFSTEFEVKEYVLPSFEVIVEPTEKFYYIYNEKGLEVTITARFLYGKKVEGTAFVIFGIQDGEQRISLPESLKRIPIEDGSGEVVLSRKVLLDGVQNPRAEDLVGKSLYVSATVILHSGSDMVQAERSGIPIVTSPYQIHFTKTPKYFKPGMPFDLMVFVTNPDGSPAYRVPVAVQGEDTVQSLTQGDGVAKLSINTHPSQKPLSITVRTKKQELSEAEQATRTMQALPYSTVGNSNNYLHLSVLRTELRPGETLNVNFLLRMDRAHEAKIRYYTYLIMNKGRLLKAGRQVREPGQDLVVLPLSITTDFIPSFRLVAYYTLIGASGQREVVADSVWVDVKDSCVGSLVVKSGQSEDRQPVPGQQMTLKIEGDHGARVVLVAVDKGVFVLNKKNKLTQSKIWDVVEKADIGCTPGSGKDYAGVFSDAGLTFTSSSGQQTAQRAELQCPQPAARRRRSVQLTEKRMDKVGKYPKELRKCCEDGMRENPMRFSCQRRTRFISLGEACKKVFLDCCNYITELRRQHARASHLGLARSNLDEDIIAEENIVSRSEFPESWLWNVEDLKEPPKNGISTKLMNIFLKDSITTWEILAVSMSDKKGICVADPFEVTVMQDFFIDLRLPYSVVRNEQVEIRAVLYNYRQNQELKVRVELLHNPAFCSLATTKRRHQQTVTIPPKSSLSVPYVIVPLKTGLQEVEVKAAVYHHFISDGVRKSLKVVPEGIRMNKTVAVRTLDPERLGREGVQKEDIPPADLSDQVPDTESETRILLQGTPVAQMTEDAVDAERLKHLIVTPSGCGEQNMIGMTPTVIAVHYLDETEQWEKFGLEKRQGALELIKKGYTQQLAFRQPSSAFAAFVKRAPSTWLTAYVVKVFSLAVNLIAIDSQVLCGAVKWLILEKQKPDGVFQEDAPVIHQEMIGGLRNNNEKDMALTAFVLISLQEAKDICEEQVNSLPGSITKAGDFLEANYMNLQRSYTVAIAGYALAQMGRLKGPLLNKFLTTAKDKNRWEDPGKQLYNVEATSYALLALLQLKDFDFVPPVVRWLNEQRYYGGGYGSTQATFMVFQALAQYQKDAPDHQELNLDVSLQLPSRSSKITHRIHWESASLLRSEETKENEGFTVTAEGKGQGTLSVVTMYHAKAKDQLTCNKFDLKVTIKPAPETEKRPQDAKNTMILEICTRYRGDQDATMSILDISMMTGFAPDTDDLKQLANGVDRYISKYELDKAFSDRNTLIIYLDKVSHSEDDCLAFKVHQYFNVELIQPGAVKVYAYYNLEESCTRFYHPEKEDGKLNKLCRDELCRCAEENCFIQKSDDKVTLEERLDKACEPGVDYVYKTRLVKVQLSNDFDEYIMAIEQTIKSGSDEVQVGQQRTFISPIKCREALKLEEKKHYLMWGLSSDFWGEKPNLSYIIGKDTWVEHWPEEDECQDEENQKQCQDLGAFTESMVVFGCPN
row,Binder,inhibition of hemolysis IC50
1,B1,< 100 nM
2,B2,< 100 nM
3,B3,< 100 nM
4,B4,< 100 nM
5,B5,< 100 nM
6,B6,< 500 nM
7,B7,< 100 nM
8,B8,< 100 nM
9,B9,< 100 nM
10,B10,< 100 nM
